What was measured:
Human CD3εδ-Fc (human) = Human CD3εδ-Fc (human) (UniProt P04234); assay: KD of scFv-Fc or IgG on human CD3εδ-Fc; instrument not given
[1] = molecular target: T1, Cynomolgus CD3 on Cyno CD3+ Jurkat cells (cynomolgus, UniProt Q95LI5 22-198); assay: cell binding cCD3, fold over background
T1 construct: whole, on cells; CD3 on cells; also called cCD3

[2] = molecular target: T2, Human CD3 on Human CD3+ Jurkat cells (human, UniProt P07766 23-207); assay: cell binding hCD3, fold over background
T2 construct: whole, on cells; CD3 complex on cells; also called hCD3
T2 sequence (P07766 23-207): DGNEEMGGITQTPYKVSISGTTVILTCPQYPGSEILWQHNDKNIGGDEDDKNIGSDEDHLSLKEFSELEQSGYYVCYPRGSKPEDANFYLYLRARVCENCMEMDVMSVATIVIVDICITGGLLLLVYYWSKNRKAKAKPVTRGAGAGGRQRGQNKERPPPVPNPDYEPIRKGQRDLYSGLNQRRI

[3] = molecular target: Cyno CD3εδ-Fc (cynomolgus) (UniProt Q95LI8); assay: KD of scFv-Fc or IgG on cyno CD3εδ-Fc; instrument not given
Cyno CD3εδ-Fc (cynomolgus), sequence (chain, as listed by the source mutant, chain 1 of 2): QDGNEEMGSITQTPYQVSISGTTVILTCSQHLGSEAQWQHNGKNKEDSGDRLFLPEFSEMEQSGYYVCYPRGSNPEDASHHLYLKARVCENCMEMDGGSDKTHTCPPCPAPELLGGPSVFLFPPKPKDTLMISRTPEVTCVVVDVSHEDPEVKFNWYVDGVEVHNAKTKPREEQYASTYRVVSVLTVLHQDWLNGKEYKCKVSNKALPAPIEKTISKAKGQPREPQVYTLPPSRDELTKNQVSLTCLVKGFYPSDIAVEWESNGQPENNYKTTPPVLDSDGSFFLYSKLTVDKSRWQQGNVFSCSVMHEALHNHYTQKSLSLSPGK
Cyno CD3εδ-Fc (cynomolgus), sequence (Q95LI8 22-105, stated change not applied, chain 2 of 2): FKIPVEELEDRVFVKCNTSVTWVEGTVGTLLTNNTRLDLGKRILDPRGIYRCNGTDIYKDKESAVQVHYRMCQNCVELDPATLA

Human CD3εδ-Fc (human), sequence (chain, as listed by the source mutant, chain 1 of 2): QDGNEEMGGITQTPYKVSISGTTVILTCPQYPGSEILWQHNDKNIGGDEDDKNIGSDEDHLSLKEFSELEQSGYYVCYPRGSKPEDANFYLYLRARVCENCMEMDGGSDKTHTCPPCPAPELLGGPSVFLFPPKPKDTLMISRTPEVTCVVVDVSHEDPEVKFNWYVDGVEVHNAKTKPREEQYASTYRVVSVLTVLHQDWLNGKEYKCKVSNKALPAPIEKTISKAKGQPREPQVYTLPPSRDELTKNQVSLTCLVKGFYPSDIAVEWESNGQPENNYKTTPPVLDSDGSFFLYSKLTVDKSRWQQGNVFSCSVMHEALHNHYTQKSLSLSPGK
Human CD3εδ-Fc (human), sequence (P04234 22-105, stated change not applied, chain 2 of 2): as the sequence (Q95LI8 22-105, stated change not applied, chain 2 of 2) above, with V5I, K15N, V20I, T32S, N33D, N34I, A64T, N74S, L83V counted along it
T1 sequence (Q95LI5 22-198): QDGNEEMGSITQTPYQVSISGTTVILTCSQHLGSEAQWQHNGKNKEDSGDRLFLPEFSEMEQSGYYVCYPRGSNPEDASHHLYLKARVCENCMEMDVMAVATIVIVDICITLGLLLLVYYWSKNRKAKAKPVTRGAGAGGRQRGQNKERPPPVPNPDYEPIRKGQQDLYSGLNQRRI

Kd (Human CD3εδ-Fc (human)) [nM]	Cell Binding cCD3 (FOB) [1] [FOB]	Cell Binding hCD3 (FOB) [2] [FOB]	Kd [3] [nM]	Binder
0.076	59	40	1.4	ADI-45967 (antibody, V domains shown, also called Ab3) VH: QVQLVQSGAEVKKPGASVKVSCKASGFNIKDYYMHWVRQAPGQRLEWIGWIDLENANTVYDAKFQGRVTIARDTSASTVYMELSSLRSEDTAVYYCARDAYGRYFYDVWGQGTLVTVSS VL: DIVMTQSPDSLAVSLGERAIINCKSSQSLLNARTGKNYLAWYQQKPGQPPKLLIYWASTRESGVPDRFSGSGSGTDFTLTISSLQAEDVAVYYCTQSYFRRTFGGGTKVEIK
0.06	63	28	1.5	ADI-45969 (antibody, V domains shown, also called Ab5) VH: QVQLVQSGAEVKKPGASVKVSCKASGFNIKDYYMHWVRQAPGQRLEWIGWIDLENANTVYDAKFQGRVTITRDTSASTAYMELGSLRSEDTAVYYCARDAYGRYFYDVWGQGTLVTVSS VL: DIVMTQSPDSLAVSLGERATINCKSSQSLLNARTGKNYLAWYQQKPGQPPKLLIYWASTRESGVPDRFSGSGSGTDFTLTISSLQAEDVAVYYCAQSYFRRTFGGGTKVEIK
0.12	109	45	1.8	ADI-45976 (antibody, V domains shown, also called Ab12) VH: QVQLVQSGAEVKKPGASVKVSCKASGFNIKDYYMHWVRQAPGQRLEWIGWIDLENANTVYDAKFQGRVTITRDTSASTAYMELSSLRSEDTAVYYCVRDAYGRYFYDVWGQGTLVTVSS VL: DIVMTQSPDSLAVSLGERATINCKSSQSLLNARTGKNYLAWYQQKPGQPPKLLIYWASTRESGVPDRFSGSGSGTDFTLTISSLQAEDVAVYYCVQSYFRRTFGGGTKVEIK
0.089	78	33	1.6	ADI-45981 (antibody, V domains shown, also called Ab18) VH: QVQLVQSGAEVKKPGASVKVSCKASGFNIKDYYMHWVRQAPGQRLEWIGWIDLENANTVYDAKFQGRVTITRDTSASTAYMELSSLRSEDTAVYYCARDAYGRYFYDVWGQGTLVTVSS VL: DIVMTQSPDSLAVSLGERATINCKSSQSLLNARTGKNYLAWYQQKPGQPPKLLIYWASMRESGVPDRFSGSRSGTDFTLTISSLQAEDVAVYYCSQSYFRRTFGGGTKVEIK
0.19	67	47	2.1	ADI-45974 (antibody, V domains shown, also called Ab10) VH: QVQLVQSGAEVKKPGASVKVSCKASGFNIKDYYMHWVRQAPGQRLEWIGWIDLENANTVYDAKFQGRVTITRDTSASTAYMELSNLRSEDTAVYYCARDAYGRYFYDVWGQGTLVTVSS VL: DIVMTQSPDSLAVSLGERATINCKSSQSLLNARTGKNYLAWYQQKPGQPPKLLIYWASTRESGVPDRFSGSGSGTDFTLTISSLQAEDVAVYYCKQSYFRRTFGGGTKVEIK
0.11	20	21	1.9	ADI-45971 (antibody, V domains shown, also called Ab7) VH: QVQLVQSGAEVKKPGATVKVSCKASGFNIKDYYIHWVRQAPGQRLEWIGWIDLENANTVYDAKFQGRVTITRDTSASTAYMELSSLRSEDTAVYYCARDAYGRYFYDVWGQGTLVTVSS VL: DIVMTQSPDSLAVSLGERATINCKSSQSLLNARTRKNYLAWYQQKPGQPPKLLIYWASTRESGVPDRFSGSGSGTDFTLTISSLQAEDVAVYYCVQSYFRRTFGGGTKVEIK
0.19	72	54	1.7	ADI-45979 (antibody, V domains shown, also called Ab16) VH: QVQLVQSGAEVKKPGASVKVSCKASGFNIKDYYMHWVRQAPGQRLEWIGWIDLENANTVYDAKFQGRVTITRDTSASTAYMELSSLRSEDTAVYYCARDAYGRYFYDVWGQGTLVTVSS VL: DIVMTQSPDSLAVSLGERATINCKSSQELLNARTGKNYLAWYQQKPGQPPKLLIYWASTRESGVPDRFSGSGSGTDFTLTISSLQAEDVAVYYCKQSYFRRTFGGGTKVEIK
0.095	92	88	1.3	ADI-45984 (antibody, V domains shown, also called Ab21) VH: QVQLVQSGAEVKKPGASVKVSCKASGFNIKDYYMHWVRQAPGQRLEWIGWIDLENANTVYDAKFQGRVTITRDTSASTAYMELSSLRSEDTAVYYCARDAYGRYFYDVWGQGTLVTVSS VL: DIVMTQSPDSLAVSLGERATINCKSSQSLLNARTRKNYLAWYQQKPGQPPKLLIYWASTRESGVPDRFSGSGSGTDFTLTISSLQAEDVAVYYCVQSYFRRTFGGGTKVEIK
0.16	91	55	1.8	ADI-45973 (antibody, V domains shown, also called Ab9) VH: QVQLVQSEAEVKKPGASVKVSCKASGFNIKDYYMHWVRQAPGQRLEWIGWIDLENANTVYDAKFQGRVTITRDTSASTAYMELSSLRSEDTAVYYCARDAYGRYFYDVWGQGTLVTVSS VL: DIVMTQSPDSLAVSLGERATINCKSSQSLLNARTGKNYLAWYQQKPGQPPKLLIYWASTRESGVPDRFSGSGSGTDFTLTISSLQAEDVAVYYCKQSYFRRTFGGGTKVEIK
0.068	18	16	1.4	ADI-45968 (antibody, V domains shown, also called Ab4) VH: QVQLVQSGAEVKKPGASVKVSCKASGFNIKDYYMHWVRQAPGQRLEWIGWIDLENANTVYDAKFQGRVTITRDASASTAYMELSSLRSEDTAVYYCARDAYGRYFYDVWGQGTLVTVSS VL: DIVMTQSPDSLAVSLGERATINCKSSQSLLNARTGKNYLAWYQQKPGQPPKLLIYWASTRESGVPDRFSGSGSGTDFTLTISSLQAEDVAVYYCVQSYFRRTFGGGTKVEIK
0.12	31	24	1.4	ADI-45982 (antibody, V domains shown, also called Ab19) VH: QVQLVQSGAEVKKPGASVKVSCKASGFNIKDYYMHWVRQAPGQRLEWIGWIDLENANTVYDAKFQGRVTITRDTSASTAYMELSSLRSEDTAVYYCARDAYGRYFYDVWGQGTLVTVSS VL: DIVMTQSPDSLAVSLGERATINCKSSQSLLNARTGKNYLAWYQQKPGQPPKLLIYWASTRENGVPDRFSGSGSGTDFTLTISSLQAEDVAVYYCTQSYFRRTFGGGTKVEIK
0.081	45	32	1.4	ADI-45972 (antibody, V domains shown, also called Ab8) VH: QVQLVQSGAEVKRPGASVKVSCKASGFNIKDYYMHWVRQAPGQRLEWIGWIDLENANTVYDAKFQGRVTITRDTSASTAYMELSSLRSEDTAVYYCARDAYGRYFYDVWGQGTLVTVSS VL: DIVMTQSPDSLAVSLGERATINCKSSQSLLNARTGKNYLAWYQQKPGQPPKLLIYWASTRESGVPDRFSGSGSGTDFTLTISSLQAEDVAVYYCVQSYFRRTFGGGTKVEIK
0.23	101	24	2	ADI-45983 (antibody, V domains shown, also called Ab20) VH: QVQLVQSGAEVKKPGASVKVSCKASGFNIKDYYMHWVRQAPGQRLEWIGWIDLENANTVYDAKFQGRVTITRDTSAGTAYMELSSLRSEDTAVYYCARDAYGRYFYDVWGQGTLVTVSS VL: DIVMTQSPDSLAVSLGERATINCKSSQSLLNARTMKNYLAWYQQKPGQPPKLLIYAASTRESGVPDRFSGSGSGTDFTLTISSLQAEDVAVYYCAQSYFRRTFGGGTKVEIK
0.091	159	59	1.1	ADI-45977 (antibody, V domains shown, also called Ab14) VH: QVQLVQSGAEVKKPGASVKVSCKASGFNIKDYYMHWVRQAPGQRLEWIGWIDLENANTVYDAKLQGRVTITRDTSASTAYMELSSLGSEDTAVYYCARDAYGRYFYDVWGQGTLVTVSS VL: DIVMTQSPDSLAVSLGERATINCKSSQSLLNARTGKNYLAWYQQKPGQPPKLLIYWASTRESGVPDRFSGSGSGTDFTLTISSLQAEDVAVYYCTQSYFRRTFGGGTKVEIK
0.08	85	8	1.2	ADI-45980 (antibody, V domains shown, also called Ab17) VH: QVQLVQSGAEVKKPGASVKVSCKASGFNIKDYYMHWVRQAPGQRLEWIGWIDLENANTVYDAKFQGRVTITRDTSASTAYMELNSLRSEDTAVYYCARDAYGRYFYDVWGQGTLVTVSS VL: DIVMTQSPDSLAVSLGERATINCKSSQSLLNARTGKNYLAWYQQKPGQPPKLLIYWAFTRESGVPDRFSGSGSGTDFTLTISSLQAEDVAVYYCTQSYFRRTFGGGTKVEIK
0.15	68	53	1.6	ADI-45970 (antibody, V domains shown, also called Ab6) VH: QVQLVQSGAEVKKPGASVKVSCKASGFNVKDYYMHWVRQAPGQRLEWIGWIDLENANTVYDAKFQGRVTITRDTSASTAYMELSSLRSEDTAVYYCARDAYGRYFYDVWGQGTLVTVSS VL: DIVMTQSPDSLAVSLGERATINCKSSQSLLNARTGKNYLAWYQQKPGQPPKLLIYWASTRESGVPDRFSGSGSGTDFTLTISSLQAEDVAVYYCKQSYFRRTFGGGTKVEIK
0.074	37	25	1.2	ADI-45978 (antibody, V domains shown, also called Ab15) VH: QVQLVQSGAEVKKPGASVKVSCKASGFNIKDYYMHWVRQAPGQRLEWLGWIDLENANTVYDAKFQGRVTITRDTSASTAYMELSSLRSEDTAVYYCARDAYGRYFYDVWGQGTLVTVSS VL: DIVMTQSPDSLAVSLGERATINCKSSQSLLNARTGKNYLAWYQQKPGQPPKLLIYWASARESGVPDRFSGSGSGTDFTLTISSLQAEDVAVYYCTQSYFRRTFGGGTKVEIK

Reference: patent US20260209352A1 (Adimab, published 2026)
